Data from patent US8986682B2, “Method to increase the absorption of unsaturated fatty acids by human infants” (Swedish Orphan Biovitrum AB (publ), priority 2010, dated 2015).
“Also recorded” adds a separate entry of the source.

Key:
[1] = Specific activity with PNPB substrate, sodium cholate as bile-salt activator; type: biochemical; details: after HA-HPLC and SE-HPLC purification
Experimental: Differences in functional properties are observed between rhBSSL-CHO and BSSL-MAM and from rhBSSL-OVI. The specific activity of rhBSSL-CHO is observed to be higher than that of the other forms of BSSL. The specific activities of BSSL-MAM and rhBSSL-OVI are only 80% of that of rhBSSL-CHO based on mass. Each sample is specifically purified by HA-HPLC and SE-HPLC before determination of specific activity. Specific activity is determined using 4-nitrophenyl ester butyric acid (PNPB) as a substrate for BSSL, and detection of the release of 4-nitrophenol. Briefly, a dilution series of rhBSSL (for example, from 20 to 160 ng activity/mL) is prepared in PBS with 0.1% BSA. 200 μl of these rhBSSL solutions is added to 25 μl of an activation solution containing 20 mM sodium cholate (as bile-salt activator) in PBS with 0.1% BSA. These solutions are preincubated in a spectrophotometer at 27° C. for 5 minutes. Just before measuring, 25 μl of a well-mixed substrate solution containing 5 mM PNPB in PBS-Tween is added. The formation of 4-nitrophenol can be detected by its absorbance at 400 nm and the increase in absorbance is measured during 90 seconds. The active amount of BSSL is determined using a standard curve of an rhBSSL reference standard.

[2] = test system: preterm infants born before week 32 of gestational age; assay: Change in knee-to-heel length (knemometer), studies BVT.BSSL-020/-021; type: in vivo, human; details: FAS and PP, combined data and by study, one week of treatment
Experimental: The length of the patient's leg was measured from the knee to the heel using a knemometer provided to the sites. Knee-to-heel length was recorded in millimeters on the CRF. To the extent possible, length was measured at approximately the same time each day and by the same person. Three measurements were made and the mean value was entered on the CRF.
Combined Analysis: • The combined statistical analysis of CFA data used the overall CFA values as calculated for each infant/treatment-period from each of the two individual studies. • Change in length (mm): Change in length was defined as the change in length from knee to heel from Day 1 to Day 7 in the first period and Day 10 to Day 16 in the second period. The Exploratory Efficacy Variables were: • Absorption of DHA and AA: Coefficients of absorption of DHA (C22:6 n-3) and AA (C20:4 n-6) measured in feces samples collected during the final 3 days (72 hours) of each treatment period. • Coefficients of absorption of DHA and AA were calculated using the same approach as used for CFA calculations, but using only the amounts of the individual (C22:6 n-3) and (C20:4 n-6) in samples for DHA and AA, respectively. 7.5.2 Efficacy Analysis Methodology […]

B1: rhBSSL: recombinant human bile-salt-stimulated lipase, SEQ ID. NO. 1, expressed from recombinant CHO cells; used in both clinical trials (protein, listed as Homo sapiens)
chain: AKLGAVYTEGGFVEGVNKKLGLLGDSVDIFKGIPFAAPTKALENPQPHPGWQGTLKAKNFKKRCLQATITQDSTYGDEDCLYLNIWVPQGRKQVSRDLPVMIWIYGGAFLMGSGHGANFLNNYLYDGEEIATRGNVIVVTFNYRVGPLGFLSTGDANLPGNYGLRDQHMAIAWVKRNIAAFGGDPNNITLFGESAGGASVSLQTLSPYNKGLIRRAISQSGVALSPWVIQKNPLFWAKKVAEKVGCPVGDAARMAQCLKVTDPRALTLAYKVPLAGLEYPMLHYVGFVPVIDGDFIPADPINLYANAADIDYIAGTNNMDGHIFASIDMPAINKGNKKVTEEDFYKLVSEFTITKGLRGAKTTFDVYTESWAQDPSQENKKKTVVDFETDVLFLVPTEIALAQHRANAKSAKTYAYLFSHPSRMPVYPKWVGADHADDIQYVFGKPFATPTGYRPQDRTVSKAMIAYWTNFAKTGDPNMGDSAVPTHWEPYTTENSGYLEITKKMGSSSMKRSLRTNFLRYWTLTYLALPTVTDQEATPVPPTGDSEATPVPPTGDSETAPVPPTGDSGAPPVPPTGDSGAPPVPPTGDSGAPPVPPTGDSGAPPVPPTGDSGAPPVPPTGDSGAPPVPPTGDSGAPPVPPTGDAGPPPVPPTGDSGAPPVPPTGDSGAPPVTPTGDSETAPVPPTGDSGAPPVPPTGDSEAAPVPPTDDSKEAQMPAVIRF
**Q.** With B1 as the molecule, how does the “Specific activity compared with the other forms of BSSL” value [1] read?
**A.** higher

**Q.** And the “Change in knee-to-heel length, rhBSSL versus placebo” value [2]?
**A.** No noticeable differences; also recorded: No difference
